Source: patent US9217036 (YALE UNIVERSITY, dated 2015)

Biological target: biotin-tagged amyloid-beta 42-amino acid (Aβ42) peptide, oligomer preparation
Assay: conclusion from the cell binding studies on transfected COS-7 cells

B1: full-length mouse PrP, cellular prion protein PrP^c (receptor)
chain: not shown
- binding result: binds
